Test results taken from US20230190880A1, “Formulations of Human Parathyroid Hormone (PTH) and Methods for Producing Same” (Sichuan Luzhou Buchang BIO-Pharmaceutical Co., Ltd., priority 2020, published 2023).

Test: Screening of pH and buffers: stability of liquid huPTH formulations by SEC-, RP- and CEX-HPLC
Format: physicochemical
Details: accelerated stability at 25° C. and 37° C.; pH 4.0-9.0 buffers, 140 mM NaCl, 1 mg/mL huPTH
Experimental: Recombinant huPTH (1 mg/mL) having the amino acid sequence set forth in SEQ ID NO: 2 was used as an active ingredient in the formulations. Table 1 provides a summary of the formulations that were tested in this example.
The results of SEC-HPLC, RP-HPLC and CEX-HPLC performed at 25° C. and 37° C. are depicted in FIGS. 4-6. The results of SEC-HPLC and RP-HPLC performed at 4° C. are depicted in FIGS. 7-8.

SMILES: CC[C@H](C)[C@H](NC(=O)[C@H](CCC(=O)O)NC(=O)[C@H](CO)NC(=O)[C@@H](NC(=O)[C@@H](N)CO)C(C)C)C(=O)N[C@@H](CCC(N)=O)C(=O)N[C@@H](CC(C)C)C(=O)N[C@@H](CCSC)C(=O)N[C@@H](Cc1cnc[nH]1)C(=O)N[C@@H](CC(N)=O)C(=O)N[C@@H](CC(C)C)C(=O)NCC(=O)N[C@@H](CCCCN)C(=O)N[C@@H](Cc1cnc[nH]1)C(=O)N[C@@H](CC(C)C)C(=O)N[C@@H](CC(N)=O)C(=O)N[C@@H](CO)C(=O)N[C@@H](CCSC)C(=O)N[C@@H](CCC(=O)O)C(=O)N[C@@H](CCCN=C(N)N)C(=O)N[C@H](C(=O)N[C@@H](CCC(=O)O)C(=O)N[C@@H](Cc1c[nH]c2ccccc12)C(=O)N[C@@H](CC(C)C)C(=O)N[C@@H](CCCN=C(N)N)C(=O)N[C@@H](CCCCN)C(=O)N[C@@H](CCCCN)C(=O)N[C@@H](CC(C)C)C(=O)N[C@@H](CCC(N)=O)C(=O)N[C@@H](CC(=O)O)C(=O)N[C@H](C(=O)N[C@@H](Cc1cnc[nH]1)C(=O)N[C@@H](CC(N)=O)C(=O)N[C@@H](Cc1ccccc1)C(=O)O)C(C)C)C(C)C [huPTH]
- stability profile as a function of pH: best stability profile at pH 5
